Experimental findings from patent US7041801 (VANDERBILT UNIVERSITY, dated 2006) are described below.

The target of this assay is T1, integrin αVβ3 expressed by human umbilical vein endothelial cells (HUVEC) (human, UniProt P06756 31-1048; P05106 27-788).
T1 construct: whole, on cells; also called integrin alpha V beta 3
The experiment in a line: binding to HUVEC; the receptor on HUVEC was identified as αVβ3.

T1 sequence (P06756 31-1048, chain 1 of 2): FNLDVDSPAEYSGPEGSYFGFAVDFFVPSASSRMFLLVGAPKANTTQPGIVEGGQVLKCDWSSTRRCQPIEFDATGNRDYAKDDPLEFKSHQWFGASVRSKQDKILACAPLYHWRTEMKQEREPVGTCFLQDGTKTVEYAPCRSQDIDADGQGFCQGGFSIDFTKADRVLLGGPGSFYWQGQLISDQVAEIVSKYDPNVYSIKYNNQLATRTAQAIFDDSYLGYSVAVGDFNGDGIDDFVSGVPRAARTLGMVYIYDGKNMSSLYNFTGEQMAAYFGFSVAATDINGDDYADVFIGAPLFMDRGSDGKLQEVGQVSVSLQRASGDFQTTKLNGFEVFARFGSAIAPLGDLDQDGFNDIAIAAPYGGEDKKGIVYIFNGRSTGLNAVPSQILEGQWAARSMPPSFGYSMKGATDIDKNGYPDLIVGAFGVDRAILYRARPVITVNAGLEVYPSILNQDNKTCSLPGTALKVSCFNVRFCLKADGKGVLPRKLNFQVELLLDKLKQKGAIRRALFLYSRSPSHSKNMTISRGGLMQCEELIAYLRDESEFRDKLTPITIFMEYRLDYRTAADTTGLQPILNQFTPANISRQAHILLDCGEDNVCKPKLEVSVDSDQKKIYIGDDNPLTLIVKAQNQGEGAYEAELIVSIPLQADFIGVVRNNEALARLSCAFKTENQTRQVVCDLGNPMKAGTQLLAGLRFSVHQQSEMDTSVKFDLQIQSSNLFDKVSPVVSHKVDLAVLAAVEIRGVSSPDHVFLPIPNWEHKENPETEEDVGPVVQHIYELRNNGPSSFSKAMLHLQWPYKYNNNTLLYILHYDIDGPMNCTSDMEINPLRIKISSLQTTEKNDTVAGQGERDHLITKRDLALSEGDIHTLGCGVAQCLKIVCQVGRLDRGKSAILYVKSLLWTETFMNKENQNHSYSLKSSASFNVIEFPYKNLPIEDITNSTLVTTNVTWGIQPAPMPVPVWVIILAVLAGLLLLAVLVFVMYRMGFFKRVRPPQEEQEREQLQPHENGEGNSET
T1 sequence (P05106 27-788, chain 2 of 2): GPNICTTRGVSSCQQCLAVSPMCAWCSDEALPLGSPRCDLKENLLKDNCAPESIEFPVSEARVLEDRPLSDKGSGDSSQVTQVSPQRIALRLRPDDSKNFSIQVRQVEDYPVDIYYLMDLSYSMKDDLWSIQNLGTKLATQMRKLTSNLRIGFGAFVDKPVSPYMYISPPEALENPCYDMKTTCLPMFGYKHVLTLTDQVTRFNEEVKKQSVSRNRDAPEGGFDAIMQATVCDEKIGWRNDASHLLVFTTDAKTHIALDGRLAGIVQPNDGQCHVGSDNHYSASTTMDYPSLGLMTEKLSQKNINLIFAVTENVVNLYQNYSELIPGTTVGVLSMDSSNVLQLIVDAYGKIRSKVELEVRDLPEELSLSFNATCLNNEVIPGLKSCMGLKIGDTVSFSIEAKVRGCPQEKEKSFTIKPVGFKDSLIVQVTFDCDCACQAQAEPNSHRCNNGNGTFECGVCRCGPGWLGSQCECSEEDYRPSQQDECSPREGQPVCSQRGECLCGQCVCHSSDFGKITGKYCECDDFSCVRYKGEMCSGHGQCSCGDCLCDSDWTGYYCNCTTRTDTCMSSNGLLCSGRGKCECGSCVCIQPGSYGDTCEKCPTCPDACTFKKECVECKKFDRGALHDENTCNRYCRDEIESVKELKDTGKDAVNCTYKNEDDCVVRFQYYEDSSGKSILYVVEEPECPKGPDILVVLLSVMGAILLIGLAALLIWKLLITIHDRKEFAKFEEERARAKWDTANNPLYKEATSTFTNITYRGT
Procedure: Human umbilical vein endothelial cells (HUVEC) (Clonetics Inc., San Diego, Calif.) were grown as indicated by the supplier in endothelial growth media supplemented with 10 ng/ml human recombinant epidermal growth factor, 1 μg/ml hydrocortisone, 50 μg/ml gentamicin, 12 μg/ml bovine brain extract and 2% FBS. Cells were grown at: 37° C./5% CO_2 to 70% confluency before use in the binding assay. […] The plates were washed with PBS and blocked for 30 min with a solution of heat treated (95° C. for 5 min) PBS containing 3% BSA. HUVEC cells were harvested by trypsinization and resuspended in an adhesion buffer (Hanks balanced salt solution pH 7.4 containing 10 mM Hepes, 2.2 mM MgCl_2, 0.2 mM MnCl_2 and 1% BSA). Cells (10^4/100 μl) were added to each well in the presence or absence of the indicated antagonists or controls at varying concentrations. […] Cells were incubated at 37° C./5% CO_2 for 60–90 min and wells were washed until no cells remained in the BSA control. To count remaining cells, 100 μl of endothelial media was added to each well. Cells number was determined by the Promega Cell titer AQ as indicated by the manufacturer.

B1: murine Del-1 (major form) expressed by del-1 transfected yolk sac YS-B cells (ligand)
chain: DICNPNPCENGGICLSGLADDSFSCECPEGFAGPNCSSVVEVASDEEKPTSAGPCIPNPCHNGGTCEISEAYRGDTFIGYVCKCPRGFNGIHCQHNINECEAEPCRNGGICTDLVANYSCECPGEFMGRNCQYKCSGHLGIEGGIISNQQITASSNHRALFGLQKWYPYYARLNKKGLINAWTAAENDRWPWIQINLQRKMRVTGVITQGAKRIGSPEYIKSYKIAYSNDGKTWAMYKVKGTNEEMVFRGNVDNNTPYANSFTPPIKAQYVRLYPQICRRHCTLRMELLGCELSGCSEPLGMKSGHIQDYQITASSVFRTLNMDMFTWEPRKARLDKQGKVNAWTSGHNDQSQWLQVDLLVPTKVTGIITQGAKDFGHVQFVGSYKLAYSNDGEHWMVHQDEKQRKDKVFQGNFDNDTHRKNVIDPPIYARFIRILPWSWYGRITLRSELLGCAEEE
notes: The protein is found in cell lysates, on the cell membrane and in the extracellular matrix of the transfectants (52 kDa band); also called del-1 transfectants; full-length Del-1 protein
For B1, the binding result is listed as “binds”.
